Measured values taken from publication PMC4569726.

Assays:
[1] = target: RSV F single-chain double mutant with fibritin trimerization domain (SC-DM: N67I, S215P) (respiratory syncytial virus strain A2 (subgroup A) | not stated); experiment: SEC-MALS + native gel or EMSA; purified protein; SEC-MALS: 40 μg on TSK-Gel G3000SWxl in 150 mM NaPi, 50 mM NaCl, pH 7.0; NativePAGE Bis-Tris gel
[2] = target: RSV F single-chain triple mutant with fibritin trimerization domain (SC-TM: N67I, S215P, E487Q) (respiratory syncytial virus strain A2 (subgroup A) | not stated); experiment: as above
[3] = target: Soluble, stabilized processed RSV F variant with fibritin motif (PR-TM: N67I, S215P, D486N) (respiratory syncytial virus strain A2 (subgroup A) | not stated); experiment: SDS-PAGE without reducing agents and without boiling, Western blot; samples treated with standard 0.1% SDS buffer at room temperature

Q: How did the stoichiometry N [1] turn out when “RSV F single-chain double mutant with fibritin trimerization domain (SC-DM: N67I, S215P) (domain or fragment)” was run?
A: 3

Q: Which stoichiometry N [2] does the source give for “RSV F single-chain triple mutant with fibritin trimerization domain (SC-TM: N67I, S215P, E487Q) (domain or fragment)” here?
A: 3

Q: “Soluble, stabilized processed RSV F variant with fibritin motif (PR-TM: N67I, S215P, D486N) (domain or fragment)” was tested. Which percent monomerized by 0.1% SDS [3] did it give?
A: 50%
